In PMC4200526:

Biological target: toluene 4-monooxygenase hydroxylase (T4moH), (TmoA-TmoB-TmoE)2, with C-terminally truncated TmoA and TmoE (UniProt Q00456)
Sequence of UniProt Q00456 (Q00456 1-491, chain 1 of 3): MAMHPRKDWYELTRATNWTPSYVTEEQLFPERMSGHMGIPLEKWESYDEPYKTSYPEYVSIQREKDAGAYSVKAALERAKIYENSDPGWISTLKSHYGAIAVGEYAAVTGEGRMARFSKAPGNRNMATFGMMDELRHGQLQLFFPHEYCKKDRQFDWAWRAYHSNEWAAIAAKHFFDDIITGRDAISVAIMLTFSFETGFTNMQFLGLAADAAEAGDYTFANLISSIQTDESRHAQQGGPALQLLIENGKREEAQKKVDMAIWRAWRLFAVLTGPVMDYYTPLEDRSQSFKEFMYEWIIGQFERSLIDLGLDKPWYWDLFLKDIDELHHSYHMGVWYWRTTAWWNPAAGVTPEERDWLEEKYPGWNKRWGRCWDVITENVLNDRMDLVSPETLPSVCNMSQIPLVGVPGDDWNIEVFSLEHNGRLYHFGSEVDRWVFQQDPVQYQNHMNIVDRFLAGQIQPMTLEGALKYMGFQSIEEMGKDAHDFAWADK
Sequence of UniProt Q00456 (Q00457 whole entry, chain 2 of 3, further chain, the tested form may be a part): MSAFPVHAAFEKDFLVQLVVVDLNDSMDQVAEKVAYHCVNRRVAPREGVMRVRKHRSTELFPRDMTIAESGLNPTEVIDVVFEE
Sequence of UniProt Q00456 (Q00460 1-306, chain 3 of 3, further chain): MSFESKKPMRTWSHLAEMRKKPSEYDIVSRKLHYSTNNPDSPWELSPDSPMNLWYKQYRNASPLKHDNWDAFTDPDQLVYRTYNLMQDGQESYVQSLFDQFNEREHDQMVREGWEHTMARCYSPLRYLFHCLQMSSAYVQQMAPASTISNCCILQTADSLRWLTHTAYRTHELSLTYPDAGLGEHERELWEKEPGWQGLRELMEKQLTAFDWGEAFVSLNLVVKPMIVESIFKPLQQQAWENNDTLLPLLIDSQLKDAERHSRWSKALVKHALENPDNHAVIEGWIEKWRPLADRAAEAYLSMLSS

apparent KM for T4moC in steady-state toluene hydroxylation (4 uM T4moH, 0.4 uM T4moF), before the increase caused by T4moD: 3 µM | apparent KM for T4moC in steady-state toluene hydroxylation (4 uM T4moH, 0.4 uM T4moF), increased by inhibiting T4moD: 16 µM
Substance: T4moC, Rieske-type ferredoxin of toluene 4-monooxygenase, Cys7Ser/Cys84Ala/Cys85Ala variant (used for 4P1C) (from UniProt Q00458 8-112) (natural protein)
